Results: the supplement of paper PMC5998384

Assays:
HeLa Kyoto [1] = assay: thermal stability score vs G1/S (z-score of summed log2 fold changes over temperatures); higher = more thermally stable than in G1/S
HeLa Kyoto [2] = assay: melting temperature (median over replicates), in situ; higher = more thermally stable
HeLa Kyoto [3] = assay: solubility in G1/S (NP-40 vs SDS abundance) (log2 ratio); higher = more soluble; details: cell cycle stage: G1/S
HeLa Kyoto [4] = assay: solubility change mitosis vs G1/S (difference of NP-40 vs SDS log2 ratios) (log2 ratio difference); higher = more soluble in mitosis
[5] = cell cycle stage: early G1 (4.5 h after nocodazole release)
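Throughout, for melting temperature (median over replicates), in situ: HeLa Kyoto cells synchronized by double thymidine or nocodazole block, proteins quantified by TMT10plex mass spectrometry, three independent biological replicates.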
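Throughout, for solubility change mitosis vs G1/S (difference of NP-40 vs SDS log2 ratios): synchronized HeLa Kyoto cells (double thymidine block for G1/S, nocodazole release for mitosis), protein amounts in NP-40 versus SDS lysates quantified by mass spectrometry, three biological replicates.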
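Throughout, for solubility in G1/S (NP-40 vs SDS abundance): HeLa Kyoto cells arrested at G1/S by double thymidine block, proteins quantified by TMT10plex mass spectrometry in mild NP-40 versus SDS extracts, three biological replicates.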
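Throughout, for thermal stability score vs G1/S (z-score of summed log2 fold changes over temperatures): synchronized HeLa Kyoto cells, proteins quantified by TMT10plex mass spectrometry, three biological replicates, mitosis taken 0.5 h after nocodazole release, G1/S directly after double thymidine block.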

Sequence | thermal stability score (HeLa Kyoto [1]; [5]) | thermal stability score (HeLa Kyoto [1]; cell cycle stage: mitosis) | melting temperature (HeLa Kyoto [2]; cell cycle stage: G1/S) [°C] | melting temperature (HeLa Kyoto [2]; cell cycle stage: mitosis) [°C] | solubility in G1/S (log2) (HeLa Kyoto [3]) | solubility change mitosis (log2) (HeLa Kyoto [4])
MGSAGLSRLHGLFAVYKPPGLKWKHLRDTVELQLLKGLNARKPPAPKQRVRFLLGPMEGSEEKELTLTATSVPSFINHPLVCGPAFAHLKVGVGHRLDAQASGVLVLGVGHGCRLLTDMYNAHLTKDYTVRGLLGKATDDFREDGRLVEKTTYDHVTREKLDRILAVIQGSHQKALVMYSNLDLKTQEAYEMAVRGLIRPMNKSPMLITGIRCLYFAPPEFLLEVQCMHETQKELRKLVHEIGLELKTTAVCTQVRRTRDGFFTLDSALLRTQWDLTNIQDAIRAATPQVAAELEKSLSPGLDTKQLPSPGWSWDSQGPSSTLGLERGAGQ [TRUB2] | -0.241 | 0.385 | 50.2 | 50 | -0.103 | 0.16
MEWGSESAAVRRHRVGVERREGAAAAPPPEREARAQEPLVDGCSGGGRTRKRSPGGSGGASRGAGTGLSEVRAALGLALYLIALRTLVQLSLQQLVLRGAAGHRGEFDALQARDYLEHITSIGPRTTGSPENEILTVHYLLEQIKLIEVQSNSLHKISVDVQRPTGSFSIDFLGGFTSYYDNITNVVVKLEPRDGAQHAVLANCHFDSVANSPGASDDAVSCSVMLEVLRVLSTSSEALHHAVIFLFNGAEENVLQASHGFITQHPWASLIRAFINLEAAGVGGKELVFQTGPENPWLVQAYVSAAKHPFASVVAQEVFQSGIIPSDTDFRIYRDFGNIPGIDLAFIENGYIYHTKYDTADRILTDSIQRAGDNILAVLKHLATSDMLAAASKYRHGNMVFFDVLGLFVIAYPSRIGSIINYMVVMGVVLYLGKKFLQPKHKTGNYKKDFLCGLGITLISWFTSLVTVLIIAVFISLIGQSLSWYNHFYVSVCLYGTATVAKIILIHTLAKRFYYMNASAQYLGEVFFDISLFVHCCFLVTLTYQGLCSAFISAVWVAFPLLTKLCVHKDFKQHGAQGKFIAFYLLGMFIPYLYALYLIWAVFEMFTPILGRSGSEIPPDVVLASILAGCTMILSSYFINFIYLAKSTKKTMLTLTLVCAITFLLVCSGTFFPYSSNPANPKPKRVFLQHMTRTFHDLEGNAVKRDSGIWINGFDYTGISHITPHIPEINDSIRAHCEENAPLCGFPWYLPVHFLIRKNWYLPAPEVSPRNPPHFRLISKEQTPWDSIKLTFEATGPSHMSFYVRAHKGSTLSQWSLGNGTPVTSKGGDYFVFYSHGLQASAWQFWIEVQVSEEHPEGMVTVAIAAHYLSGEDKRSPQLDALKEKFPDWTFPSAWVCTYDLFVF [ERMP1] | -3 | -4.39 | 58.8 | 56.7 | -0.0493 | -0.18
MAAGIVASRRLRDLLTRRLTGSNYPGLSISLRLTGSSAQEEASGVALGEAPDHSYESLRVTSAQKHVLHVQLNRPNKRNAMNKVFWREMVECFNKISRDADCRAVVISGAGKMFTAGIDLMDMASDILQPKGDDVARISWYLRDIITRYQETFNVIERCPKPVIAAVHGGCIGGGVDLVTACDIRYCAQDAFFQVKEVDVGLAADVGTLQRLPKVIGNQSLVNELAFTARKMMADEALGSGLVSRVFPDKEVMLDAALALAAEISSKSPVAVQSTKVNLLYSRDHSVAESLNYVASWNMSMLQTQDLVKSVQATTENKELKTVTFSKL [ECH1] | -1.52 | -2.22 | 53.4 | 53.5 | 0.165 | -0.00393
MSTLYVSPHPDAFPSLRALIAARYGEAGEGPGWGGAHPRICLQPPPTSRTPFPPPRLPALEQGPGGLWVWGATAVAQLLWPAGLGGPGGSRAAVLVQQWVSYADTELIPAACGATLPALGLRSSAQDPQAVLGALGRALSPLEEWLRLHTYLAGEAPTLADLAAVTALLLPFRYVLDPPARRIWNNVTRWFVTCVRQPEFRAVLGEVVLYSGARPLSHQPGPEAPALPKTAAQLKKEAKKREKLEKFQQKQKIQQQQPPPGEKKPKPEKREKRDPGVITYDLPTPPGEKKDVSGPMPDSYSPRYVEAAWYPWWEQQGFFKPEYGRPNVSAANPRGVFMMCIPPPNVTGSLHLGHALTNAIQDSLTRWHRMRGETTLWNPGCDHAGIATQVVVEKKLWREQGLSRHQLGREAFLQEVWKWKEEKGDRIYHQLKKLGSSLDWDRACFTMDPKLSAAVTEAFVRLHEEGIIYRSTRLVNWSCTLNSAISDIEVDKKELTGRTLLSVPGYKEKVEFGVLVSFAYKVQGSDSDEEVVVATTRIETMLGDVAVAVHPKDTRYQHLKGKNVIHPFLSRSLPIVFDEFVDMDFGTGAVKITPAHDQNDYEVGQRHGLEAISIMDSRGALINVPPPFLGLPRFEARKAVLVALKERGLFRGIEDNPMVVPLCNRSKDVVEPLLRPQWYVRCGEMAQAASAAVTRGDLRILPEAHQRTWHAWMDNIREWCISRQLWWGHRIPAYFVTVSDPAVPPGEDPDGRYWVSGRNEAEAREKAAKEFGVSPDKISLQQDEDVLDTWFSSGLFPLSILGWPNQSEDLSVFYPGTLLETGHDILFFWVARMVMLGLKLTGRLPFREVYLHAIVRDAHGRKMSKSLGNVIDPLDVIYGISLQGLHNQLLNSNLDPSEVEKAKEGQKADFPAGIPECGTDALRFGLCAYMSQGRDINLDVNRILGYRHFCNKLWNATKFALRGLGKGFVPSPTSQPGGHESLVDRWIRSRLTEAVRLSNQGFQAYDFPAVTTAQYSFWLYELCDVYLECLKPVLNGVDQVAAECARQTLYTCLDVGLRLLSPFMPFVTEELFQRLPRRMPQAPPSLCVTPYPEPSECSWKDPEAEAALELALSITRAVRSLRADYNLTRIRPDCFLEVADEATGALASAVSGYVQALASAGVVAVLALGAPAPQGCAVALASDRCSIHLQLQGLVDPARELGKLQAKRVEAQRQAQRLRERRAASGYPVKVPLEVQEADEAKLQQTEAELRKVDEAIALFQKML [VARS] | -0.359 | -0.482 | 51 | 50.5 | -0.0962 | -0.183
MPRVYIGRLSYQARERDVERFFKGYGKILEVDLKNGYGFVEFDDLRDADDAVYELNGKDLCGERVIVEHARGPRRDGSYGSGRSGYGYRRSGRDKYGPPTRTEYRLIVENLSSRCSWQDLKDYMRQAGEVTYADAHKGRKNEGVIEFVSYSDMKRALEKLDGTEVNGRKIRLVEDKPGSRRRRSYSRSRSHSRSRSRSRHSRKSRSRSGSSKSSHSKSRSRSRSGSRSRSKSRSRSQSRSRSKKEKSRSPSKEKSRSRSHSAGKSRSKSKDQAEEKIQNNDNVGKPKSRSPSRHKSKSKSRSRSQERRVEEEKRGSVSRGRSQEKSLRQSRSRSRSKGGSRSRSRSRSKSKDKRKGRKRSREESRSRSRSRSKSERSRKRGSKRDSKAGSSKKKKKEDTDRSQSRSPSRSVSKEREHAKSESSQREGRGESENAGTNQETRSRSRSNSKSKPNLPSESRSRSKSASKTRSRSKSRSRSASRSPSRSRSRSHSRS [SRSF4] | -1.55 | -1 | 50.7 | 50.2 | -0.671 | 0.361
